The target of assay [1] is Crataeva tapia bark protein (CrataBL) (Crataeva tapia) (UniProt U3KRG0). Nature of the assay: SEC; Superdex 75 equilibrated in 0.15 M NaCl; at the concentration used in the crystallization trials.
Assay [2] concerns the target human Factor Xa (human). The experiment in a line: enzyme inhibition assay; chromogenic or fluorogenic substrates in 96-well plates at 37°C; enzyme pre-incubated with CrataBL for 10 min; apparent Ki (Kiapp) by fit to the equation for slow-tight binding; buffer specific for each enzyme (trypsin 40 nM in 0.1 M Tris-HCl pH 8.0 with CaCl2; Factor Xa 21 nM in 0.02 M Tris-HCl pH 7.4, 0.14 M NaCl, 5.0 mM CaCl2, 0.1% BSA).

Assay [3] has as its target bovine trypsin (bovine). The description is as above.

As to “Crataeva tapia bark protein (CrataBL) (from UniProt U3KRG0 1-165) (natural protein)”, the stoichiometry N (as a rule, a count of units in the complex or per binding partner) in assay [1] turned out to be 2. Further, the Ki was determined as 8.6 µM in assay [2] and 43 µM in assay [3].

Values taken from publication PMC3688800.
